T1: N-cadherin expressed on human glioblastoma LN-229 cells (human, UniProt P19022 160-906)
T1 construct: whole, on cells
T1 sequence (looked up): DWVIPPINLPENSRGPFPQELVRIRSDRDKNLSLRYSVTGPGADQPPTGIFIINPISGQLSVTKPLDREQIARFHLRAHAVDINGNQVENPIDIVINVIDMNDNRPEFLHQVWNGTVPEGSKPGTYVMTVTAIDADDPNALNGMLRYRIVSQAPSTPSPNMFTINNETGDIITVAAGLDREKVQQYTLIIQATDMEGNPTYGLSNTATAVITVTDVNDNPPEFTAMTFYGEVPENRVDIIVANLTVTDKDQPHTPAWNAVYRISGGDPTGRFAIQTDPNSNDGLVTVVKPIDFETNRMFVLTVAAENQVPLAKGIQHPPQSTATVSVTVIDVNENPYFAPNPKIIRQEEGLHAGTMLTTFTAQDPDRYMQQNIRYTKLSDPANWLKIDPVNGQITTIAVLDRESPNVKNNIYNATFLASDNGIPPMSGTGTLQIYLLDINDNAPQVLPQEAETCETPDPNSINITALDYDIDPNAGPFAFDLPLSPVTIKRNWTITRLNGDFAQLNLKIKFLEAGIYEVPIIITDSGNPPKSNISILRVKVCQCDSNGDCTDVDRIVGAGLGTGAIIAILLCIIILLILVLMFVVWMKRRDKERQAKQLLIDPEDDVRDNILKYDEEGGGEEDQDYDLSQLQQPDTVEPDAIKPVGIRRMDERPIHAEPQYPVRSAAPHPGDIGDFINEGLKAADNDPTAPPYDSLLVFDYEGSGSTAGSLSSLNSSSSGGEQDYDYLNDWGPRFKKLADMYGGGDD

B1: human N-cadherin-Fc (R&D Systems) (Fc fusion, UniProt P19022 160-724, looked up)
chain: DWVIPPINLPENSRGPFPQELVRIRSDRDKNLSLRYSVTGPGADQPPTGIFIINPISGQLSVTKPLDREQIARFHLRAHAVDINGNQVENPIDIVINVIDMNDNRPEFLHQVWNGTVPEGSKPGTYVMTVTAIDADDPNALNGMLRYRIVSQAPSTPSPNMFTINNETGDIITVAAGLDREKVQQYTLIIQATDMEGNPTYGLSNTATAVITVTDVNDNPPEFTAMTFYGEVPENRVDIIVANLTVTDKDQPHTPAWNAVYRISGGDPTGRFAIQTDPNSNDGLVTVVKPIDFETNRMFVLTVAAENQVPLAKGIQHPPQSTATVSVTVIDVNENPYFAPNPKIIRQEEGLHAGTMLTTFTAQDPDRYMQQNIRYTKLSDPANWLKIDPVNGQITTIAVLDRESPNVKNNIYNATFLASDNGIPPMSGTGTLQIYLLDINDNAPQVLPQEAETCETPDPNSINITALDYDIDPNAGPFAFDLPLSPVTIKRNWTITRLNGDFAQLNLKIKFLEAGIYEVPIIITDSGNPPKSNISILRVKVCQCDSNGDCTDVDRIVGAGLGTGA
notes: also called N-cadherin substrate; purified N-cadherin substrate; not shown: Fc part of the bought fusion

Columns and labels:
[1] = biological target: B1; test: cell-based or functional assay
[2] = biological target: T1, N-cadherin expressed on human …; test: cell adhesion assay: LN-229 cells on spots of N-cadherin-Fc on nitrocellulose-coated dishes; this is the pair whose adhesion ADH-1 reduces
Protocol: Sterile 35 mm tissue culture dishes were coated with nitrocellulose in methanol and allowed to dry. Distinct spots, containing 50 ng of either purified Laminin (Sigma) or N-cadherin-Fc (R&D Systems), were made by spotting 10 μl of protein solution on the nitrocellulose-coated tissue culture dishes. Each dish contained two distinct spots of both Laminin and N-cadherin-Fc. After a 20-min incubation at room temperature, the protein solutions were aspirated. Remaining binding sites on the nitrocellulose were blocked with 2% BSA in PBS, and the dishes were rinsed with DMEM (Invitrogen).
4×10⁵ cells were added to each tissue culture dish in the presence of N-cadherin peptidomimetic small molecules, reconstituted in either DMSO or 0.3% cyclodextrin, and diluted in DMEM supplemented with 10% fetal bovine serum (HyClone). In the control experiments, either DMSO or cyclodextrin was added with LN-229 cells in the absence of the peptidomimetic small molecules. The cells were allowed to adhere to the protein substrate for 2 hours at 37° C., 5% CO₂. After incubation, the medium was removed and the tissue culture dishes were rinsed once with PBS to remove any unattached cells. Cells were fixed with 4% PFA, 0.01% glutaraldehyde in PEM buffer for 10 minutes at room temperature and rinsed once in PBS prior to imaging.

| IC50 for inhibition of RGC neurite outgrowth [1] [mM] | binding result [2] | Binder |
| --- | --- | --- |
| 2.33 | – | Ac-CHAVC-NH2 (also: cyclic peptide, cyclising bond not given here) [ADH-1 (short cyclic HAV peptide N-Ac-CHAVC-NH2)] |
| – | binds | B1 |

Source: US20100093602A1 (CASE WESTERN RESERVE UNIVERSITY, published 2010)
